Assay results reported in US20230057602A1, “METHODS OF TREATMENT WITH ANTIBODIES AGAINST BCMA AND CD3” (BRISTOL-MYERS SQUIBB COMPANY, priority 2019, published 2023).

Key:
[1] = system: Relapsed/Refractory Multiple Myeloma (RRMM) patients; experiment: Clinical study of CC-93269 in RRMM: safety, cytokine release syndrome (CRS); assay type: in vivo, human
Description: CC-93269 (42-TCBcv), a bispecific antibody that specifically binds to BCMA bivalently and CD3 monovalently, was administered intravenously over 2 hours on Days 1, 8, 15, and 22 for Cycles 1-3; Days 1 and 15 for Cycles 4-6; and on Day 1 for Cycle 7 and beyond, all in 28-day cycles. […] 5 patients received a starting dose of 6 mg on Cycle 1 Day 1, followed by a dose of 10 mg on Cycle 1 Day 8 and thereafter (Cohort 7, n=5).
CRS prophylaxis was implemented with dexamethasone (up to 20 mg intravenous or equivalent) for the first dose and dose increases in patients receiving ≥6 mg. In Cohorts 1-4, dexamethasone was not used as a premedication.
Patients were monitored for clinical signs and symptoms associated with CRS (Lee, 2014) and CRS events were graded and treated according to the common CTCAE CRS grading scale (Lee, 2015).
CC-93269 was administered intravenously over 2 hours on Days 1, 8, 15, and 22 for Cycles 1-3; Days 1 and 15 for Cycles 4-6; and on Day 1 for Cycle 7 and beyond, all in 28-day cycles. Patients received a starting dose of 3 mg on Cycle 1 Day 1, followed by a dose of 6 mg on Cycle 1 Day 8 and thereafter.
Cohorts 8 (n=6) and 9 (n=5) differ in baseline multiple myeloma tumor burden based on percentage of bone marrow plasma cells and/or the presence of extramedullary disease (Cohort 8 including subjects with ≤50% bone marrow plasma cells [biopsy or aspirate] and ≤5 extramedullary lesions and Cohort 9 including subjects with >50% bone marrow plasma cells or >5 extramedullary lesions). Patients with lower (Cohort 8) and higher (Cohort 9) tumour burden were enrolled to evaluate possible differences in tolerability based on the rationale that the only patient of Cohorts 1-7 to experience Grade ≥3 CRS had extensive extramedullary disease at enrolment.
In Cohorts 8 and 9, all patients received dexamethasone (up to 20 mg intravenous or equivalent) as prophylaxis for CRS prior to the first dose, the second dose, any dose increase, and after dose interruption of more than 2 weeks occurring during Cycles 1 to 6. Patients were monitored, graded, and treated for CRS in the same way as for Cohorts 1-7 in Example 1.

[2] = system: H929 BCMA-expressing myeloma cell line; experiment: CC-93269-induced redirected lysis of H929; assay type: cell-based, human; settings: E:T 1:1, 72 hours, 3 donors
Description: (§1) Four BCMA-expressing tumour cell lines purchased from ATCC (Manassa, Va.) (Multiple Myeloma cell lines: BCMA high-H-929 (catalog number CRL-9068), BCMA mid-SKMM2 and -MM.1S (catalog number ACC-430) and BCMA low-KMS12-PE (catalog number ACC-606)) were co-cultured with T-cells from 3 independent healthy donors (Bloodworks Northwest, Seattle, Wash.), at a E:T ratio of 1:1, i.e. 1 T cell: 1 myeloma cell. […]; 0.033-2.6 nM) for 72 hours.
(§2) FIG. 7 illustrates CC-93269-induced redirected lysis of BCMA+ tumour cell lines following co-culture with donor T cells from one healthy donor; results from all 3 independent healthy donors are summarised in Table 19. In 96-well round bottom plates and a final volume of 100 μL, 1×10^4 CellTrace Violet-labeled T-cells were plated with 1×10^4 CellTrace CFSE-labeled target cells, in the presence of varying concentrations of CC-93269 in combination with varying concentrations of dexamethasone (7-point dose response). The cocultures were incubated at 37° C. with 5% CO2. […] One-hundred percent viability was determined by the absolute cell count of live tumour cells at no addition of CC-93269 or dexamethasone; an absolute cell count of 0 live cells was used to define 100% killing of tumour cells. […] The IC50 values were calculated using non-linear regression analysis, sigmoidal dose-response using GraphPad Prism (version 5.0) software.

[3] = system: SKMM2 BCMA-expressing myeloma cell line; experiment: CC-93269-induced redirected lysis of SKMM2; assay type: cell-based, human; settings: E:T 1:1, 72 hours, 3 donors
Description: as §1, §2

[4] = system: MM1S BCMA-expressing myeloma cell line; experiment: CC-93269-induced redirected lysis of MM1S; assay type: cell-based, human; settings: E:T 1:1, 72 hours, 3 donors
Description: as §1, §2

[5] = Clinical study of CC-93269 in RRMM: pharmacokinetics (exposure); assay type: in vivo, human
Description: CC-93269 (42-TCBcv), a bispecific antibody that specifically binds to BCMA bivalently and CD3 monovalently, was administered intravenously over 2 hours on Days 1, 8, 15, and 22 for Cycles 1-3; Days 1 and 15 for Cycles 4-6; and on Day 1 for Cycle 7 and beyond, all in 28-day cycles. 14 patients received a fixed dose of CC-93269 at each of the intervals: 0.15 mg (Cohort 1, n=1), 0.5 mg (Cohort 2, n=1), 1.5 mg (Cohort 3, n=1), 3 mg (Cohort 4, n=4), 6 mg (Cohort 5, n=3) or 10 mg (Cohort 6, n=4). 5 patients received a starting dose of 6 mg on Cycle 1 Day 1, followed by a dose of 10 mg on Cycle 1 Day 8 and thereafter (Cohort 7, n=5).
This phenomenon was not observed at 3 mg doses.

CC-93269: bispecific antibody that specifically binds to BCMA bivalently and CD3 monovalently; SEQ ID NO:48, 55, 56, 57 (2×)
patients who experienced CRS ([1]; 11 patients, 3/6 mg dose regimen (Cohorts 8 and 9)): 54.5% | subjects with Grade 2 or higher CRS events ([1]; 11 subjects receiving 3/6 mg): 18.2% | subjects with Grade 2 or higher CRS events ([1]; 12 subjects, 6 mg, 6/10 mg, or 10 mg doses): 50% | subjects who experienced CRS ([1]; 12 subjects, 6 mg, 6/10 mg, or 10 mg doses (Cohorts 5 to 7)): 100% | CRS, maximum Grade ([1]; Cohort 6, consecutive doses of 6 mg, all CRS events in Cycle 1): 2 | CRS frequency or severity, higher versus lower tumor burden ([1]; Cohort 9 compared with Cohort 8): no increase observed | Grade 3 or higher CRS events ([1]; Cohorts 8 and 9): no Grade 3 or higher CRS events were reported | severity of CRS in comparison with Cohorts 5 to 7 ([1]; Cohorts 8 and 9): generally decreased | CRS events of Grade 1 ([1]; Cohorts 8 and 9, 8 events): 75% | CRS events of Grade 2 ([1]; Cohorts 8 and 9, 8 events): 25% | outcome of CRS events ([1]; Cohorts 8 and 9, tocilizumab and/or dexamethasone): resolved with standard treatments | death on study ([1]; One patient, 6 mg first dose and 10 mg on Cycle 1 Day 8 (Cohort 7)): died on the study in the setting of CRS | CRS events lasting more than 3 days ([1]; all cohorts 1 to 9): 4 of 36 | CRS events occurring with the first dose on C1D1 ([1]; all cohorts 1 to 9): 73.3% | CRS events occurring with the second dose on C1D8 ([1]; all cohorts 1 to 9): 23.3% | duration of a CRS event, range ([1]; all cohorts 1 to 9): 1 to 7 days | maximum time to first onset of CRS ([1]; all cohorts 1 to 9): 3 days | median duration of a CRS event ([1]; all cohorts 1 to 9): 2 days | median time to first onset of CRS ([1]; all cohorts 1 to 9): 1 days | CRS events occurring with subsequent doses ([1]; all cohorts 1 to 9, limited to Grade ≤2 events): 2.7% | tolerability ([1]; consecutive doses of ≤3 mg, no CRS prophylactic): well-tolerated | Cytokine release syndrome, maximum Grade ([1]; fixed dose of ≤3 mg): 1 | CRS Grade after the first dose ([1]; one patient of Cohort 7, Cycle 1 Day 1, 6 mg): 3 | CRS Grade after the second dose ([1]; same patient of Cohort 7, Cycle 1 Day 8, 10 mg): 5 | % live tumour cells, Mean ([2]; 1 μM Dex co-treatment): 2.11% | % live tumour cells, Mean ([2]; DMSO): 1.61% | % live tumour cells, Mean ([3]; 1 μM Dex co-treatment): 3.5% | % live tumour cells, Mean ([3]; DMSO): 2.68% | % live tumour cells, Mean ([4]; 1 μM Dex co-treatment): 0.98% | % live tumour cells, Mean ([4]; DMSO): 1.5% | large increases in exposure after multiple doses ([5]; 3 mg doses): not observed | exposure after multiple doses ([5]; doses ≥6 mg): large increases in exposure
